Laboratory results: the nanobody polyreactivity screen of Harvey et al. (2022)

Test: yeast display, Sf9 membrane polyspecificity reagent, FACS + sequencing; frameworks hold sequencing errors
Outline: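 Polyreactivity labels are assigned by the sorting gate from which each nanobody was recovered. The gates were low and high (top ~1%), set on anti-HA fluorescence for expression and streptavidin fluorescence for reagent binding. Before sorting, galactose-induced (36–48 hours) yeast display cells were stained for 1 hour at 4 °C with 10% biotinylated, detergent-solubilized Sf9 membrane reagent.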

## QVQLLESGGGLVQAGGSLRFSCAASGFTFPVYAMGWYRQAHGKEREFVAAISWSGGSTSYADSVKGRFTSSRDNAKNTVYLQMNSLKPEDTAVYYCAAEHEQYTQLDYWGQGTQVTVAS
  polyreactivity (PSR sort gate): high polyreactivity

## QVQLVESGGGLVQAGGSLRLSCAASGITFVPYVMGWYRQAPGKERELVAAITVRGSRTYYADSVKGRFTISRDNAKNTVYLQMNSLKPEDTAVYYCAAGRYLSRTFFTYYYWGQGTQVTVSS
  polyreactivity (PSR sort gate): high polyreactivity

## QVQLVESGGGLVQAGGSLRLSCAASGRTFGWYAMGWYRQAPGKERELVAAIRSSGGRTHYADSVKGRFTISRDNAKNTVYLQMNSLKPEDTAVYYCAARYSAAYYWGQGTQVTVSS
  polyreactivity (PSR sort gate): high polyreactivity

## QVQLVESCGGLVQAGGSLRLSCAATGRIFAGYVMGWYRPAHGKERELVAAISWRGGRTYYADSVKGRFTISRDNAKNTVYLQMISLKPEDTAVYYCNAPYAVGNPADDYWGQGTQVTVSS
  polyreactivity (PSR sort gate): high polyreactivity

## QVQLVESGGGLVQAGGSLRLSCAASGSIFVNNAMGWYRQAHGKERELVAAISGSGSSTHYAHSVKGRFTISRDNAKNTVYLQMNSLKPEDTAVYYCNRGRRDLDFNYWGQGTQVTVSS
  polyreactivity (PSR sort gate): low polyreactivity

## QVQLVESGGGLVQAGGSLRLSCAASGITFWKYAMGWYRQAPGKERELVAVITKSGGSTYYADSVKGRFTISRDNAKNTVYLQMNSLKPEDTAVYYCAASSETYYYGYEYWGQGTQVTVSS
  polyreactivity (PSR sort gate): high polyreactivity

## QVQLVESGGGLVQAGGSLRLSCAASGSTFPPYAMGWYRPAPGKGRELVAAISYRDTGTYYADSVKGRFTISRDNAKNTVYLQMNSLKPEDTAVYYCAADYLIVYYFLYYYWGQGTPVTVSS
  polyreactivity (PSR sort gate): low polyreactivity

## QVQLVESGGGLVQAGGSLRLSCAASGRTLKKNSMGWYRQAPGKERELVAAISTGGRTYYADSVKGRFTISRDNAKNTVYLQINSLKPEDTAVYYCNFQFLSWSTIWGNDYWGQGTQVNVSS
  polyreactivity (PSR sort gate): high polyreactivity

## QVQLVESGGGLVQAGGSLRLSCAASVRIFAKYAMGWYRQAPGKERELVAAITSGGRTYYADSVKGRFTISRDNAKNTVYLPMNSLKPEDTAVYYCNAVPKSRDWQSYGSWGQGTQVTVSS
  polyreactivity (PSR sort gate): high polyreactivity

## QVQLVESGGGLVQAGGSLRLSCAASGSTFKIYAMGWYRQAPGKERELVARITGRGGSTYYADSVKGRFTISRDNAKNTVYLQMNSLKPEDTAVYYCAARVYTYYYDLHKRYYWGQGTQVTVSS
  polyreactivity (PSR sort gate): high polyreactivity

## QVQLVESGGGLVQAGGSLRLSCAASGSTFNKYTMGWYRQAPGKERELVAAITSGDSTYYADSVKGRFTISRDNAKNTVYLQMNSLKPEDTAVYYCAKSLRAYRHVIYGKPFYSWGQGTQVTVSS
  polyreactivity (PSR sort gate): low polyreactivity

## QVQLVESGGGLVQAGGSLRLSCAASGFTFWYYAMGWYRQAPGKERELVAAITYNGDRTYYADSVKGRFTISRDNAKNTVYLQMNSLKPEDTAVYYCAAAFVSVRKRYGYWGQGTQVTVSS
  polyreactivity (PSR sort gate): high polyreactivity

## QVQLVESGGGLVQAGGSLRLSCAASGRTIQYNAMGWYRQAPGKERQLVAAISSSGGSTYYADSVKGRFTISRDNAKNTVYLQMNSLKPEDTAVYYCNAYSQSWNFYGDGDYWGQGTQVTVSS
  polyreactivity (PSR sort gate): low polyreactivity

## QVQLVESGGGLVQAGGSLRLSCAASGFIFSYYVMGWYREAPGKERELVAAISWNGGSTFYADSVKGRFTISRDNAKNSVYLQMNSLKPEDTAVYYCAAYPRFYGGKYGEYGYWGQGTQVTVSS
  polyreactivity (PSR sort gate): high polyreactivity

## QVQLVESGGGLVQAGGSLRLSCAASGRTFTVYAMGWYRQAPGKEREFVAAITERGGSTYYADSVKGRFTISRDNAKNTVYLQMNSLKPEDTAVYYCAAVYYWRPGWYVRFDYWGQGTQVTVSS
  polyreactivity (PSR sort gate): low polyreactivity

## QVQLVESVRGLDQAGGSLRLSCAASGSIFDSNAMGSYRQATGKERELVAAITGSGTSTYYADSVKGRFTISRDNAKNTVYLQMNILKPEDTAVYYCARDSLQVFYTYGSDDYWGQGTQVTVSS
  polyreactivity (PSR sort gate): low polyreactivity

## QVQLVESGGGLVQAGGSLRLSCAASGFIFPHNTMGWYRQAPGKERELVAAISSGGSTNYADSVKGRFTISRDNAKNTVYLQMNSLKPEDTAVYYCNKRVRYHSGFGYWGQGTQVTVSS
  polyreactivity (PSR sort gate): low polyreactivity
